B1: 18-675 (nucleic acid)
DNA: CCCACAGCAAGAATGCCATCATCTGTCCTCACCCCCAATTTTCCCTTTTCTTCCCCTGCAACCATTACGCTTACTCGCATGTGCATTGAGTGGTGCATGTGTTGAACAAACAGCTACACTCACATGGGGGCGGGTTTTCCCGCCCTACGGCCTCTCGCGAGGCCCACCCCTTCCCTCCCCTTATAACTACAGTGCTTTGGTAGGTAAGCATCCTGATCCCCCGCGGAAGCTGCTCACGTGGCAACTGTGGGGACCCAGACAGGTTATCAAAGGCACCCGGTCTTTCCGCCTTCAGGAGTATCCCTACTAGTGAATTCTAGCGGGGCTCTGCTTGGTGCCAACCTCCCCCAAATGCGCGCTGCGGGAGTGCTCTTCCCCAACTCACCCTAGTATCCTCTCATGTGTGTGCTTGGTCAGCATATCTGAGACGATGTTCCGCTGTCCCAGACCAGTCCAGTAATGGACGGGCCAGTGCGTGTAGTCGTCTTCCGGCTTGTCCGGGGCATGTTTGGTGAACCGGTGGGGTAAGGTTGGTGTGCCCAACGCCCGTACTTTGGTGACACCTCAAGACCACCCAGGAATGCCAGGGAGGTACCCCACCTCACGGTGGGATCTGACCCTGGGCTAATTGTCTACGGTGGTTCTTCTTGCTTCCACTTCTTTCTTCTGTTCACG
modifications: source: /note="Description of Unknown: 18-675 sequence"
B2: A73-675 (nucleic acid)
DNA: TTACTCCATTCAGCTTCTTCGGAACCTGTTCGGAGGAATTAAACGGGCACCCATACTCCCCCCACCCCCCTTTTGTAACTAAGTATGTGTGCTCGTGATCTTGACTCCCACGGAACGGACCGATCCGTTGGTGAACAAACAGCTAGGTCCACATCCTCCCTTCCCCTGGGAGGGCCCCCGCCCTCCCACATCCTCCCCCCAGCCTGACGTATCACAGGCTGTGTGAAGCCCCCGCGAAAGCTGCTCACGTGGCAATTGTGGGTCCCCCCTTCATCAAGACACCAGGTCTTTCCTCCTTAAGGCTAGCCCCGGCGTGTGAATTCACGTTGGGCAACTAGTGGTGTCACTGTGCGCTCCCAATCTCGGCCGCGGAGTGCTGTTCCCCAAGCCAAACCCCTGGCCCTTCACTATGTGCCTGGCAAGCATATCTGAGAAGGTGTTCCGCTGTGGCTGCCAACCTGGTGACAGGTGCCCCAGTGTGCGTAACCTTCTTCCGTCTCCGGACGGTAGTGATTGGTTAAGATTTGGTGTAAGGTTCATGTGCCAACGCCCTGTGCGGGATGAAACCTCTACTGCCCTAGGAATGCCAGGCAGGTACCCCACCTCCGGGTGGGATCTGAGCCTGGGCTAATTGTCTACGGGTAGTTTCATTTCCAATCCTTTTATGTCGGAGTC
modifications: source: /note="Description of Unknown: A73-675 sequence"
B3: Tropivirus A (nucleic acid)
DNA: TGTCGCATGTTGCCAACATCAAAATTCTGGGAGAGTCGCGAACTCCTTAACACTGCCTTGCCTCGACGGAGCCGTTGTTATAGTGTCGACGGGATACAAACATTAAACTAAACCCACTTGCCTCGACGGAACCCCTTACCTTTTATTTTATTTTATAGTATGAAAGTGAATCTTGTATGAATGTTCATAGAAAACTGCAAATGAGTACCACGTCTAACATGAGAGAATGATACTGGAGAAATCCAAGTTTAGAAGTCACTACGAATCCCAGCGGAAACAAGGGAATTCTGAGCTTCTAATAGGCGTTTAAGACTATTTGCAAAATTCTGGTGCGTAAGTGATATTTTCATTGCGTAGAACGCTGGTAACCACTCCGGCTAGTATAAGCATTGTTAGTCACTTATTATGAAACTCCACACTATCCTTTCTGGAGAAGCACACAAACTTACATGGTAAAGCTAGACCATTATCTTAAGCGGTGAGTACACTGCAACCTTGTAACAATGCTTGTATGACTACTTTTTGTATATCTTGAGCAATATTGTTGAGGTGGACATGTCCAAAGGTAATGTTGTTGGGAATGGAGGGGTCCATTTTCCCGTGCACGTAGTGTACTAGTATTGGGTGATAGCCTTGCGGCGGATCAACCATGTATTTTAATCCGTTGACTTTCAC
modifications: Tropivirus A
B4: Aichivirus Rt386 (nucleic acid, listed as Aichivirus sp.)
DNA: ACTCCATTCAGCTTCTTCGGAACCTGTTCGGAGGAATTAAACGGGCACCCACTTTCCTGTCCTCTCCCCCTTTCTGCAACTCAAGTGTGTGCTCGTAATCCTGACTCCCACGGGTTGACCGCCCCGTTGGTGAACAAACAGCTAGGTCATTCCCTCCCTACCCCTGGGCGCCATTTCAGTGGCGTTCATATCCTCCCCCCAGCCTGACGTGTCACAGGCTGTGCAAAGTCCCCGCGAAAGCTGCTCACGTGGCAATTGTGGGTCCCCCCTTTGTGAAGGAACCGAGTCTTTCTCCCTTAAGGCTAGACCCCTGTGTGAACTCACAGGTGGCAACTAGTGGTTCCACTGCATGCTCCCGACCTCGGCCGCGGAGTGCTGTTCCCCAAGTCGTGACACTGACCTCCACTTATGTGCCTGGCAAGCATATCTGAGAAGATGTTCCGCTGTGGCTGCCAAACCTGGTAACAGGTGCCCCAGTGCGTGTAGTCTTCTTCCGTCTCCGGACGGTAAGTGTGTGGTAAAGATGCGGCGTAAGGTTCAAGTGCCAACGCCCTGGAAGGGATGACCCTTCTACTGCCCTAGGAATGCCGCGCAGGTACCCCAGGTTCGCCTGGGATCTGAGCGCGGGCTAATTGTCTACGGGTAGTTTCATTTCCCTCTCTTTTCACTGGCATC
B5: Porcine Kobuvirus GS2 (nucleic acid, listed as Kobuvirus sp.)
DNA: TTTGAAAAGGGGGTGGGGGGGCCTCGGCCCCCTCACCCTCTTTTCCGGTGGCCATTCGCCCGGGCCACCGTTACTCCACTCCACTCCTTCGGGACTGGTTTGGAGGAACACAACAGGGCTTCCCATCCCTGTTTACCCTTTATTCCATCATCCTTTCCCCAAGTTTACCCTATCCACACCCCACTGACTGACTCCTTTGGATTTTGACCTCAGAATGCCTATTTGACCTCCCACTCGCCTCTCCCTTTTCGGATTGCCGGTGGTGCCTGGCGGAAAAAGCACAAGTGTGTTGCAGGCTACCAAACTCCTACCCGACAAAGGTGCGTGTCCGCGTGCTGAGTAATGGGATAGGAGATGCCTACAACAGGCTCGCCCATGAGTAGAGCATGGACTGCGGTGCATGTGACTTCGGTCACCACGGGCATAGCATTGCTCACCCGTGAATCAAGTCATCGAGATTTCTCTGACCTCTGAAGTGCACTGTGGTTGCGTGGCTGGGAATCCACGCTTGACCATGTACTGCTTGATAGAGTCGCGGCTGGCCGACTCATGGGTTAAAGTCAGTTGACAAGACAC
modifications: lipid formulation
B6: Symapivirus A (nucleic acid)
DNA: TTGGGAAATCCCCAATGCTTCTTTCAACACCGCCTGACTATGCGGTGGCGCTTCGGCTCAAACAACTAGTCACTTCCCCCTCTTAACTACTACCCAAGACTTCTAACTACCCTTACCTACTTATTTGTCTAAATTTCAAACTTTTATTCTCACGCGTCTTATAAACATCTTTTCTATTTGTTATGGTATGTTTTGTGATTTGTGTGGTGTATTTCATTTAATGGGATCTAGTGGACCGTGCCCCGGTTGGGTATCCGCTCCCTTTAAATGTTTGCAAGCACTCTTGACATTATAACCTATCATTTAGTTTACTTGTTTGTATGATCGTATTTCTGAATCGTAACATTTATGCAATTCTTTCTCGCCGAGACTTGTCTAGGAGATAAAGTTCCTGCATATTTAGTGTTACGGTTGTATAATGGAGACTTAGATAGCTTCACACTGAGGACGCTTTTTCGCTATCCTTTTGACCTGATTCAGGCCAGTGTGGAGTTAATGATTGTATGGATGGGCCCTACAATTTGTCTAAGACTTGGTGATAGCCTCGCGGCCGCTCGCCATTTATACAACTGAATAGCGGTTGAAACTCTCT
modifications: Symapivirus A

What follows are molecules tested on HEK293 cells. Conditions: circular RNA encoding Gluc with the listed IRES (UTR truncated to 675 nt) transfected into HEK293 cells; supernatant after 24 hours.
Type: cell-based, human

Molecule | Expression (luminescence from secreted Gluc protein)
B1 | 6.04E+07
B2 | 1.30E+08
B3 | 9.52E+04
B4 | 5.71E+07
B5 | 44200000
B6 | 1.27E+05
